Paper PMC2663797 (The journal of physical chemistry. B, 2008)

Target: the molecule itself
Assay: SDS-PAGE

B1: porin OmpF from E. coli (wild type) (natural protein, UniProt P02931 23-362, looked up)
chain: AEIYNKDGNKVDLYGKAVGLHYFSKGNGENSYGGNGDMTYARLGFKGETQINSDLTGYGQWEYNFQGNNSEGADAQTGNKTRLAFAGLKYADVGSFDYGRNYGVVYDALGYTDMLPEFGGDTAYSDDFFVGRVGGVATYRNSNFFGLVDGLNFAVQYLGKNERDTARRSNGDGVGGSISYEYEGFGIVGAYGAADRTNLQEAQPLGNGKKAEQWATGLKYDANNIYLAANYGETRNATPITNKFTNTSGFANKTQDVLLVAQYQFDFGLRPSIAYTKSKAKDVEGIGDVDLVNYFEVGATYYFNKNMSTYVDYIINQIDSDNKLGVGSDDTVAVGIVYQF
stoichiometry N: 3
